# Laboratory results from the DeepSol protein solubility set.
# Test: soluble on expression in E. coli; label from the status in PepcDB or PDB records
row,Sequence,soluble on expression in E. coli
1,MEQYHKIVLTGSNAETMLIKNIEPVAVKFINNYKGFFYVFKYSKDFPIIDVYINNKIVTENQLNKILQNSGAKYKIYKNSIFNETQGNFGMLGDKYLAEFFKKTNEISLNILNQNFESYNKKIEFALEIMLISAHYNYDSIKKGYLSYASHVNGFFTRWKDPNKIRDIFHKNYLNNKEYLESKVSEIIDNNNRSSLSELSDIITEMKKEMTTDIEKGNLHVFNIELLQKPGERDFLEKSQFHKTILNNPDFSNFMNKDINFLGSRLITVFTYLLIRNLGIQNKDRYLLCYYIYKIIEEKYNIDTLELIRDFGKGRDNNVEDLQRY,not soluble
2,WIVQKQKKWSSDPVGTQKNVFDLLIKKAQKTTFGKDHAFDSIQSHADYCRLVPVREYEGFKEYIELVKQGTQDVLWPGIPLYFAKTSGTTSGVKYIPITKDSIGYHINGAKDALLNYVHQTGKSEFLDKKLIFLSGSPIMEKKNGIYIGRLSGIVNHHVPGYLRGNQLPSFETNCVDDWESKLEKIVDETIDQDMSLISGIPPWVQMYFDRIEERTHKKIKDVFPSFSLLVYGGVNFSPYKRKLIESIGKEIDTVETYPASEGFIAFQDIPGQAGLLLLLNSGIFYEFIPVEEYGSANPTRLTIGEVKTDVNYALVMSTNAGLFAYSIGDTVKFVSTAPYRIVVTGRVKHFISAFGEHVIGEEVEQAMKNALLKHPEVSITEFTVAPQVTPEEGLPYHEWLIEFISMPADMDQFAHDLDQEMIQKNIYYKDLIVGNILRPLVITSISAGGF,not soluble
3,APLATRQGKRPSKNLKARCSRKALHVNFKDMGWDDWIIAPLEYEAFHCEGLCEFPLRSHLEPTNHAVIQTLMNSMDPESTPPTCCVPTRLSPISILFIDSANNVVYKQYEDMVVESCGCR,soluble
4,MLYNKSSFCLWKETIVPIILDSDVLEVAEYVYKTRLSQPYTEVGSEWEYNYKNPTATFAKGDGHNLQRYITIDGKQLHRPIHGLAHTMRTLMYSQLMYCSSKKQPSPHVCQDGRTIADLSELDLKKINIAQLFFVAGRESEASYGDAYHRYHLYGAKQFEEYARKHLTHLFSEEEIRLYSRCIEDRVGDSFDGTPEGYIIHLSHMIDLMRCKSPVEVFLGHSKGVSGIVPTLIHLFGKQDGLDIMHYARGLFAATGEAVPYIDSSEWPHLGVDLSRVQRALSIVGDINVPGQEADSKKTAQAGFSVDGCYSALTSVPTPSWYEKELKEIDDEKIDVKEVDDREIEKEHEIVVPSQATTPLSTVKTDSFVEKLLKPFMIWKKPEVQTTQPTTEKTNKP,not soluble
5,MAHHHHHHMPKIRPGMKRPPPGFEKINDKLDEYDAEMRLALSEDPSQAELPVPSKRKDKQNKVEATKDKHAQSVQRGDGGVAGHSDGELDKPEPPLWRVARINRERTRYVFNACFRERIIAEEVLDYCCEMNFIDAGLVRRWSLAGYERLCCNTCCLPGAASEAARMVNKFANRDKKDRRTNGNDDTGGTCICRVPDEKRLAKAFTRCMVCGCSGCGSGGKRKHDTEEKDSVSDMKKVRTDDYEVKSGK,not soluble
6,MAHHHHHHMLFRTIRHFDLRRPTLMELVRELRFRTEAPIADCCAALKEANENMDRALEVLRNKGLAKAVKKGSRVTEHGSVVACVGETFGAAIVTVCSETDFAARSLQFQRVCGTVMETLRTQIISTEGTALDDCAAVHRLLTDAAAEQIQATIAVLGENVTIKSIQPLRFAPHVAEHISIGAYTHGTLSVQNVGRVAGVVAVSRTDPSARVPEEKLVDVARHFVACSGAEGSYAHQNFFGTEETVGQWLKRHGLRFSSSLVVDFGKEPIIHTAPQPVAGTK,soluble
7,FMQDFEDIQKDIEQLDIKCAHEQMNIQKQYDEKKKPLFEKRDEIIQKIPGFWANTLRKHPALSDIVPEDIDILNHLVKLDLKDNMDNNGSYKITFIFGEKAKEFMEPLTLVKHVTFDNNQEKVVECTRIKWKEGKNPIAAVTHNRSDLDNEIPKWSIFEWFTTDELQDKPDVGELIRREIWHNPLSYYLGLEE,soluble
8,MNLASVLLLLAACHLSVSVNGQEHKEAIELSMANHDHVLGSAQVVFVAFCADWCPFSRRLKPIFEESARVFHQENPQASAVWAIVDSQRQADIGDKYFVNKYPTMKVFVNGELITKEYRSTRSVEALTNFVKFQLSTAINEFSSQDQLNQEMDKSKRNVVAWLKKDGPEFANLKKVASILREDCSFWVPTDHFGTQTNDNKLSFFDPDSNEEAKFTGNFNDYDFVKQWVTDKCIPLVREVTFENVEELTEEGMPFLIYFRDPDNKTTDKVFGEAVARELYDQRSAINPLLADGHKFAHPLKHLGKTKEDLPVLAIDSFQHMYLFPDMTQMNIPGKLREFVMDLHSGKLHKDFHENLDQRMIELAKAKAARGITDDHEAQAPSTRPIDTTPPPSVFKELKPSDKRYSILQKSEL,not soluble
9,SNAYTDESGLSELVNAAGEKLQDLELMGQKNAVRDFFKELIADSGKVAYGESQVRANLEINSVDVLLLSEDLRAERVTTKCSVCGYENKWTRRWKPGEPAPAAGNCPKCGSSLEVTDVTDIVDEFSELADKSNAKVVFVSTDFDEGSQLMNAFGGIAAILRYNTGV,soluble
10,GAMGMDEGDGEGNILPIMQSIMQNLLSKDVLYPSLKEITEKYPEWLQSHRESLPPEQFEKYQEQHSVMCKICEQFEAETPTDSETTQKARFEMVLDLMQQLQDLGHPPKELAGEMPPGLNFDLDAL,soluble
11,GPGSMEDPVRCECQKHAQDDGYSQGELLPLTAFRQVEKRYKLYRYDRRTSRRLQVPETDFSDVVDFRNLEANTAANLACISTRECHEDDRLVKCCTFAGVPGMEVFPNFLTDAEQQEFCRAALLEYGDSRRHPNHLSTHASEPRETTRYEPPMRWATVGFSYQWSSKSYCKEKYSHFPRRLRKCVERIARLCNVSQPYEPQTSIVNYFPVGAMMMAHQDVSEEVLQQPLISISLGCSCVFLMGTESRDDTPCAFWLRSGDVIVVSGASRTAYHGVPRIMDDCPQYLCPQNETEEEEGEFYWREQMRHLRVNINVRQVYPDRCEFLNE,not soluble
12,MGDNQVTGGDIHKLWMTAHMDISAVEDAYIKLTEQLDGDVAEGDEGKYGKAFDSWNIYREIVQLALFRTAVSARATRLALDLAVSEFTFVDGDAANGITDAGKEFLEAVGDENQTPPEYVVEPEGDPVAPLGNDE,not soluble
13,MEQPEKNIKLAYDGEIHLAVGASKTEKKWKNRQMSWSDFTQRLKTPTVTQETVEDYKKMPKSKQGEVKDVGAFIGGWLKEGRRKRGNTQQRSLVTLDADSTTLDFWDDVQLLFDHAAAVYTTHSHLVKGPRYRLIIPLSRPVTAEEYEPLARKLAEFFGMDNFDDTTYQAERLMYWPSHSIDGEYFTDNIDLPWVDPDEILSQYEDWRDASFWPESSRGHSIRERQAKKAGDPLEKKGIVGAFCRTYDIISAIETFLPDIYGSTGREDRWTFLEGSTSGGLVIYDDKFAYSHHGTDPVGDQLVNAFDLVRIHLFGDLDEDVKPTTRIDRYPSFKAMREFAMEDKQVKTLIQSEKLSQALEDFDGELDELEEDDKDWFTKLDLEIDEYGQIMASAKNLEVIMLNDPNLKKKIFMNSFSNRIEVKDNLPWRKLDRDKMWKDSDDAGLRVYIEKIYGIVNRGKIDDALVQEIERNSYDPVKEYLESLHWDGVPRVETLLIDYLGAEDTPFIRVVTKKFLTAAVGRIFVPGIKFDYMLVTSGPQGIGKTLLPAKLAGDWFSNSLEGVTGKDSYEALQGVWIMEMGELSATKKADIEATKHFISKQEDIFRVAYGRHKSYFKRRCVFWGTTNDNEFLRDKTGNRRFWPVDVGIQPIKNKVWEMTDETRNQIWAEAVELWQAGEPLYLTDEQEKLALEAQEMHTETSSMEGEILEYLEIPITEDWYKRSKQERREYIQGWGTDIQEEGEIVRNKVCIAEVWNELYNGDSKNIHPAKAAEIRQVLSHLSGWEKNSKGNKGRLRFGPGYGVQVAYLRVTP,not soluble
14,MRAIVFVKATKSSEEGVMPTTELMEAMGKFNEELVNAGIMQSGDGLHPSSKGKRVVFDGDSRTVVNGPFPHTNELVAGFWIWKVKDMDEAVEWVKRCPNPMLEKSEIEIRPMFEMEDFGDAVTPEIAAHVEELRARVGKQ,not soluble
